From patent US20260078197A1 (BIOCYTOGEN PHARMACEUTICALS BEIJING, published 2026)
Changes are numbered by the printed parent chain. In names and notes the source's numbering stands.

T1: His-tagged monkey TFR1 protein (monkey (Macaca fascicularis))
T1 construct: Bought protein; The order of the tag and the receptor part is not known; also called fasTFR1-His; ACROBiosystems Cat #: TFR-C524a; not shown: His tag
T1 chain: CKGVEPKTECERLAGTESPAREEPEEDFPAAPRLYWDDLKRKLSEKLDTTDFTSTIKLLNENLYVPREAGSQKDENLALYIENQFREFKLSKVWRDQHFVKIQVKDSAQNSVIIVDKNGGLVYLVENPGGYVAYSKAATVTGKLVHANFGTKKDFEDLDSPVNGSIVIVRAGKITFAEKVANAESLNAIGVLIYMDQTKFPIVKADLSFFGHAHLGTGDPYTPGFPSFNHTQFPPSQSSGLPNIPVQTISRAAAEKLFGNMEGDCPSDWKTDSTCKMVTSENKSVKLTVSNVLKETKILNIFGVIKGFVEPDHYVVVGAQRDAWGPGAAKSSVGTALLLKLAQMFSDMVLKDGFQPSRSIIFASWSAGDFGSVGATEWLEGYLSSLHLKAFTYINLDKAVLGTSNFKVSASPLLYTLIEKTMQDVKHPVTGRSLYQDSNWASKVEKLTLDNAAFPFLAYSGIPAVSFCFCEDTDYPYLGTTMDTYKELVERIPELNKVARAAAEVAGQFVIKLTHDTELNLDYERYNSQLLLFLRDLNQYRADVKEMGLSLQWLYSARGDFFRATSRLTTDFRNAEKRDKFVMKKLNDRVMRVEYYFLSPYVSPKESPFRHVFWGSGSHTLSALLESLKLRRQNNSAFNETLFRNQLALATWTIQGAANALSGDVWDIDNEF

T2: Macaca fascicularis (crab-eating macaque) TFR1 expressed on CHO-S cells (Macaca fascicularis (crab-eating …))
T2 construct: CHO-S cells transfected with a vector expressing fasTFR1; also called fasTFR1; CHO-S-fasTFR1 cells
T2 chain: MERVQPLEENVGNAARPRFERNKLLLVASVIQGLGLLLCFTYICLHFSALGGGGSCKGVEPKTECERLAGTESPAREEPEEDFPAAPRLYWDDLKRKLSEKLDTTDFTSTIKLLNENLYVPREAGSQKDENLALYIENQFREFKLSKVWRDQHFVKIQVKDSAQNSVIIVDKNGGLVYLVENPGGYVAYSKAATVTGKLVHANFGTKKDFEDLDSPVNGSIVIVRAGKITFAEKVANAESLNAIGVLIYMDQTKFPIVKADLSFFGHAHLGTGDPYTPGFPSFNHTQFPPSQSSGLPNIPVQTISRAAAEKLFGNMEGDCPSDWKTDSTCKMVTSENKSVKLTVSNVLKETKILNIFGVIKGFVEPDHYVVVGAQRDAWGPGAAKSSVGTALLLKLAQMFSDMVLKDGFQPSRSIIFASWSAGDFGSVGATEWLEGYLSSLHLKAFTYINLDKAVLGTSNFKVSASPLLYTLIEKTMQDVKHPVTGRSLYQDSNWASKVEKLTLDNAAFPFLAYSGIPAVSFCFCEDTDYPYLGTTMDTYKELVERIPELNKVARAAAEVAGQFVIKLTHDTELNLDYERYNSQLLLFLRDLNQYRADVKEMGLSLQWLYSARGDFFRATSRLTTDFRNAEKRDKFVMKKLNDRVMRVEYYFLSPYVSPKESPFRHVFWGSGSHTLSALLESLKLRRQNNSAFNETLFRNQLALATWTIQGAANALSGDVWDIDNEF

B1: JR141-N (antibody, V domains shown)
VH: EVQLVQSGAEVKKPGESLKISCKGSGYSFTNYWLGWVRQMPGKGLEWMGDIYPGGDYPTYSEKFKVQVTISADKSISTAYLQWSSLKASDTAMYYCARSGNYDEVAYWGQGTLVTVSS
VL: DIVMTQTPLSLSVTPGQPASISCRSSQSLVHSNGNTYLHWYLQKPGQSPQLLIYKVSNRFSGVPDRFSGSGSGTDFTLKISRVEAEDVGVYYCSQSTHVPWTFGQGTKVEIK
notes: also called positive control; JR141 VH and VL on human IgG1 N297A
B2: 24C9 (antibody, human IgG1, V domains shown)
VH: EVQLVQSGGGVVQPGRSLRLSCAASGFTLSSYGMYWVRQAPGKGREWVAFIRFDESKKYYADSVKGRFTISRDNSKNTLYLQMNSLRAEDTAVYYCARDGEGGYCTNGVCHGLDVWGQGTTVTVSS
notes: Heavy-chain antibody without light chain; also called anti-TFR1 antibody 24C9
B3: 23B8 (antibody, V domains shown)
VH: QVTLKESGGGLVKPGGSLRLSCAASGFPFSNAWMNWVRQAPGKGLEWVGHIKSKTDGGTTDYAAPVKGRFTISRDDSKNMVFLQMNSLKTEDTAVYYCTTDRAYCGGDCSHYYYHDLDVWGQGTTVTVSS
notes: Heavy-chain antibody without light chain; also called anti-TFR1 antibody 23B8
B4: 24A1 (antibody, human IgG1, V domains shown)
VH: EVQLVESGGGLVQPGGSLRLTCAASGFTFSSYAMSWVRQAPGKGLERVSEISGSGSSTNYADSVKGRFTISRDNSKNTLYLQMNSLRAEDTAVYYCAKDDSSGWAFNIWDQGTVVTVSS
notes: Heavy-chain antibody without light chain; also called anti-TFR1 antibody 24A1
B5: 24G5 (antibody, human IgG1, V domains shown)
VH: B4 VH with E1Q, V2L, V5Q, Y32F, G53D, S56G, S57N, N59Y
notes: Heavy-chain antibody without light chain; also called anti-TFR1 antibody 24G5

biological target: T3, His-tagged human TFR1 (transferrin receptor 1) protein (human, UniProt P02786 89-760); test: BLI (Octet) binning; hTFR1-His captured on HIS1K; ratio = binding of analyte 2 / binding of analyte 1; competitor (analyte 1, bound first): JR141-N
T3 construct: Bought protein; The order of the tag and the receptor part is not known; also called hTFR1-His; ACROBiosystems Cat #: CD1-H5243; not shown: His tag
T3 sequence (P02786 89-760 limits assumed): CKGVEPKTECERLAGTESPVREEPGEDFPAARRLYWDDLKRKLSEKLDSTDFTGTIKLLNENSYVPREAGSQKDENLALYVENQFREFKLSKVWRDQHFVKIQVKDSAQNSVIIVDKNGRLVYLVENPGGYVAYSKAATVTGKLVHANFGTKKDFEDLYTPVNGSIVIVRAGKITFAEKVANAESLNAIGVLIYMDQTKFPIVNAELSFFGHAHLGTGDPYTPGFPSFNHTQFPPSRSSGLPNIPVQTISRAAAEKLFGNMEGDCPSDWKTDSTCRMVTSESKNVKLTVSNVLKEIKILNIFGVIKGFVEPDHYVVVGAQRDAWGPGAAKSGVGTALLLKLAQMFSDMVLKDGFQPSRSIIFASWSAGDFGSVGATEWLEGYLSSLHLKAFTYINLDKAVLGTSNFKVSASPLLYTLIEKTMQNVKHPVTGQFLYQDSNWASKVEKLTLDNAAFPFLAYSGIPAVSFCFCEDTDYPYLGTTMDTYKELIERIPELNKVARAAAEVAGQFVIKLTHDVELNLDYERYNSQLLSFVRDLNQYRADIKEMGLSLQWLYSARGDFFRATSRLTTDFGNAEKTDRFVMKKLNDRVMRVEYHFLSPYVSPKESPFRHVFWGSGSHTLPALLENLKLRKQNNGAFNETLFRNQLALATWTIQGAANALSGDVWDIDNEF
Experimental: (§1) Relative positions of target protein epitope between a pair of purified anti-TFR1 antibodies were analyzed by Biolayer Interferometry (BLI) using ForteBio Octet system at 30° C. 1×HBS-EP+ buffer (10 mM 4-(2-hydroxyethyl)-1-piperazineethanesulfonic acid (HEPES), 150 mM NaCl, 3 mM ethylenediaminetetraacetic acid (EDTA) and 0.05% P20, pH7.4) diluted from HBS-EP+ buffer (10×) was used as the running buffer throughout the experiment. About 10 μg/mL of hTFR1-His protein was captured by HIS1K (Anti-Penta-HIS) for 200 seconds, and 200 nM of antibody (analyte 1) was injected at a flow rate of 30 μL/min to bind the ligand. Another antibody (analyte 2) was injected under the same conditions to determine whether the binding of different antibodies interfered with each other. The binding time was 300 seconds for each antibody.
(§2) The binding value of each antibody was obtained using Data Analysis HT 12.0. To quantify the interference of one antibody binding to another, a binding ratio was calculated to compare each pair of antibodies. The binding ratio is defined as the binding value of the second antibody (analyte 2), divided by the binding value of the first antibody (analyte 1).

Row | binding ratio | Binder
1 | 0 | B1
2 | 0.8 | B2
3 | 1.1 | B3
4 | 0.3 | B4
5 | 0.2 | B5

biological target: T4, human TFR1 expressed on CHO-S cells (human, UniProt P02786 1-760); test: flow cytometry on CHO-S-hTFR1 cells; anti-hIgG-Fc Alexa Fluor 647 secondary
T4 construct: CHO-S cells transfected with a vector expressing human TFR1; also called hTFR1; CHO-S-hTFR1 cells
T4 sequence (P02786 whole entry): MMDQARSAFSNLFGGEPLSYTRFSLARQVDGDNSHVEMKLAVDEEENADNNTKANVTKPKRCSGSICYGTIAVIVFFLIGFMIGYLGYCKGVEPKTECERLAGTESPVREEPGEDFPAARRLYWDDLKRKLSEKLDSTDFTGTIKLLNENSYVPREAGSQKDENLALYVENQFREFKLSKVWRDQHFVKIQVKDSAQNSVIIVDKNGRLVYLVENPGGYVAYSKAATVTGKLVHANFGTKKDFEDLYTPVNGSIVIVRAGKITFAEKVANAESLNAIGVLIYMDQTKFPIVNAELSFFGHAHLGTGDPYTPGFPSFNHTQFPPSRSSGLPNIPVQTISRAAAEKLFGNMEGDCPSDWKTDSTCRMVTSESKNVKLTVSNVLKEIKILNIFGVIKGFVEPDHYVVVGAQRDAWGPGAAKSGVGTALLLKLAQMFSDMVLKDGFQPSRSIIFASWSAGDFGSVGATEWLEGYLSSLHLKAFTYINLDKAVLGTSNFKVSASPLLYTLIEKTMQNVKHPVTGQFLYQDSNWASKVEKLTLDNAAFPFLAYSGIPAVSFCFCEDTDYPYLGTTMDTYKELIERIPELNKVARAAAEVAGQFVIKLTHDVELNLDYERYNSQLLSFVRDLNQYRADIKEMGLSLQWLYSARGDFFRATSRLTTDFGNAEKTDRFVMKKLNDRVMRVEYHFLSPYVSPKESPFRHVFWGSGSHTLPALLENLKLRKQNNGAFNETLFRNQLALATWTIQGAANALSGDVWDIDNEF
Experimental: (§3) CHO-S-hTFR1 cells or CHO-S-fasTFR1 cells were transferred to a 96-well plate at a density of 10⁵ cells/well respectively. Serially diluted sample anti-TFR1 antibodies were added to the 96-well plate, and incubated at 4° C. for 30 minutes. PBS was used as a negative control (NC).

Row | Percentage of Positive Cells [%] | Binder
6 | 45 | B1
7 | 45.8 | B2
8 | 38.8 | B3
9 | 56.4 | B4
10 | 54.3 | B5

biological target: T3, His-tagged human TFR1 (transferrin …); test: BLI (Octet) binning; hTFR1-His captured on HIS1K; ratio = binding of analyte 2 / binding of analyte 1; competitor (analyte 1, bound first): 24C9
Experimental: as §1, §2

Row | binding ratio | Binder
11 | 1.1 | B1
12 | 0 | B2
13 | 1.4 | B3
14 | 0.1 | B4
15 | 0 | B5

biological target: T3, His-tagged human TFR1 (transferrin …); test: BLI (Octet) binning; hTFR1-His captured on HIS1K; ratio = binding of analyte 2 / binding of analyte 1; competitor (analyte 1, bound first): 24G5
Experimental: as §1, §2

Row | binding ratio | Binder
16 | 0 | B1
17 | 0.2 | B2
18 | 0.3 | B3
19 | 0.1 | B4
20 | 0 | B5

Biological target: T1, His-tagged monkey TFR1 protein
Test: SPR, Biacore 8K; antibody captured on Protein A chip, fasTFR1-His as analyte; 1:1 Langmuir fit
Experimental: (§4) Purified anti-TFR1 antibodies was captured on the Protein A chip (Series S Sensor Chip Protein A) for the detection. Purified anti-TFR1 antibodies (1 μg/mL) was loaded at 10 μL/min to bind to hTFR1-His and fasTFR1-His (200 nM). The flow rate was 30 μL/min. The binding and dissociation time were set to 180 seconds and 600 seconds, respectively. The chip was regenerated after the last injection of each titration with a glycine solution (pH 2.0) at […] for 30 seconds.
(§5) As a person of ordinary skill in the art would understand, the same method with appropriate adjustments for parameters (e.g., antibody concentration) was performed for each tested antibody.

Row | Kd [nM] | koff [s⁻¹] | kon [M⁻¹ s⁻¹] | Binder
21 | 19.5 | 0.00799 | 410000 | B3
22 | 2.32 | 0.000101 | 43600 | B4
23 | 1.39 | 8.79e-05 | 63300 | B5

Biological target: T2, Macaca fascicularis (crab-eating …)
Test: flow cytometry on CHO-S-fasTFR1 cells; anti-hIgG-Fc Alexa Fluor 647 secondary
Experimental: as §3

Row | Percentage of Positive Cells [%] | Binder
24 | 37.2 | B1
25 | 39.6 | B3
26 | 50.9 | B4
27 | 51.2 | B5

biological target: T3, His-tagged human TFR1 (transferrin …); test: BLI (Octet) binning; hTFR1-His captured on HIS1K; ratio = binding of analyte 2 / binding of analyte 1; competitor (analyte 1, bound first): 23B8
Experimental: as §1, §2

Row | binding ratio | Binder
28 | 0.7 | B1
29 | 0.6 | B2
30 | 0.1 | B3
31 | 0 | B4
32 | 0 | B5

biological target: T3, His-tagged human TFR1 (transferrin …); test: BLI (Octet) binning; hTFR1-His captured on HIS1K; ratio = binding of analyte 2 / binding of analyte 1; competitor (analyte 1, bound first): 24A1
Experimental: as §1, §2

Row | binding ratio | Binder
33 | 0 | B1
34 | 0.1 | B2
35 | 0.2 | B3
36 | 0.1 | B4
37 | 0 | B5

biological target: T3, His-tagged human TFR1 (transferrin …); test: SPR, Biacore 8K; antibody captured on Protein A chip, hTFR1-His as analyte; 1:1 Langmuir fit
Experimental: as §4, §5

Row | Kd [nM] | koff [s⁻¹] | kon [M⁻¹ s⁻¹] | Binder
38 | 14.3 | 0.000383 | 26800 | B2
39 | 8.73 | 0.000132 | 15100 | B3
40 | 2.93 | 7.68e-05 | 26200 | B4
41 | 2.05 | 8.68e-05 | 42400 | B5
